Laboratory results published in patent publication US20070025968A1, “Methods for selecting and producing T cell peptide epitopes and vaccines incorporating said selected epitopes” (priority 1996, published 2007).

Molecular target: other cell components, including other HLA class I alleles, of the B-LCL lines

FL-labeled HLA-A*0301 reference peptide KVFPC(FL)ALINK
relative peptide-binding percentage: < 20%
